Test results: patent publication US20030082668

T1: Boc-Val-Leu-(Ac)Lys-MCA
T1 sequence: VLK

T2: Boc-Val-Leu-Lys-MCA
T2 sequence: VLK

T3: Nma-VGAK(Ac)RHSK(Dnp)-NH2
T3 sequence: VGAKRHSK

T4: Nma-VGAK(Ac)RHSK(Dnp)-NH2
T4 chain: VGAKRHSK

B1: recombinant SIRT1 (GST fused to the amino terminal end) (protein)
chain: MADEAALALQPGGSPSAAGADREAASSPAGEPLRKRPRRDGPGLERSPGEPGGAAPEREVPAAARGCPGAAAAALWREAEAEAAAAGGEQEAQATAAAGEGDNGPGLQGPSREPPLADNLYDEDDDDEGEEEEEAAAAAIGYRDNLLFGDEIITNGFHSCESDEEDRASHASSSDWTPRPRIGPYTFVQQHLMIGTDPRTILKDLLPETIPPPELDDMTLWQIVINILSEPPKRKKRKDINTIEDAVKLLQECKKIIVLTGAGVSVSCGIPDFRSRDGIYARLAVDFPDLPDPQAMFDIEYFRKDPRPFFKFAKEIYPGQFQPSLCHKFIALSDKEGKLLRNYTQNIDTLEQVAGIQRIIQCHGSFATASCLICKYKVDCEAVRGDIFNQVVPRCPRCPADEPLAIMKPEIVFFGENLPEQFHRAMKYDKDEVDLLIVIGSSLKVRPVALIPSSIPHEVPQILINREPLPHLHFDVELLGDCDVIINELCHRLGGEYAKLCCNPVKLSEITEKPPRTQKELAYLSELPPTPLHVSEDSSSPERTSPPDSSVIVTLLDQAAKSNDDLDVSESKGCMEEKPQEVQTSRNVESIAEQMENPDLKNVGSSTGEKNERTSVAGTVRKCWPNRVAKEQISRRLDGNQYLFLPPNRYIFHGAEVYSDSEDDVLSSSSCGSNSDSGTCQSPSLEEPMEDESEIEEFYNGLEDEPDVPERAGGAGFGTDGDDQEAINEAISVKQEVTDMNYPSNKS

What was measured:
[1] = system: T1, Boc-Val-Leu-(Ac)Lys-MCA
[2] = system: T2, Boc-Val-Leu-Lys-MCA
[3] = system: T3, Nma-VGAK(Ac)RHSK(Dnp)-NH2
[4] = biological target: T4, Nma-VGAK(Ac)RHSK(Dnp)-NH2

Molecule	peptide cleavage activity (fluorescence intensity of released AMC) [1]	peptide cleavage activity (fluorescence intensity of released AMC) [2]	peptide cleavage (fluorescence intensity) [3]	NAD-dependent deacetylase activity (fluorescence intensity, lysylendopeptidase-coupled assay) [4]	deacetylase activity (fluorescence intensity, lysylendopeptidase-coupled assay) [4]
lysylendopeptidase	did not cleave Boc-Val-Leu-(Ac)Lys-MCA	digested Boc-Val-Leu-Lys-MCA	In the absence of recombinant SIRT1, the fluorescence intensity did not increase, namely, the fluorescent substrate was not cleaved off by LEP at all.	–	–
plasmin	did not cleave Boc-Val-Leu-(Ac)Lys-MCA	digested Boc-Val-Leu-Lys-MCA	–	–	–
B1	–	–	–	the fluorescence intensity increased in an NAD concentration-dependent fashion. In the absence of NAD, regardless of the presence of the recombinant SIRT1, the fluorescence intensity did not increase	the fluorescence intensity increased was proportional to the recombinant SIRT1 concentration
